This data set can be described thus: soluble on expression in E. coli; label from the status in PepcDB or PDB records.
Take “MKKPNGTNGASSSLEPPPSTFQPLCHPLVEEVSKEVDGYFLQHWNFPNEKARKKFVAAGFSRVTCLYFPKALDDRIHFACRLLTVLFLIDDLLEYMSFEEGSAYNEKLIPISRGDVLPDRSIPVEYIIYDLWESMRAHDREMADEILEPVFLFMRAQTDRTRARPMGLGGYLEYRERDVGKELLAALMRFSMGLKLSPSELQRVREIDANCSKHLSVVNDIYSYEKELYTSKTAHSEGGILCTSVQILAQEADVTAEAAKRVLFVMCREWELRHQLLVARLSAEGLETPGLAAYVEGLEYQMSGNELWSQTTLRYSVVVD”: the “soluble on expression in E. coli” value is given as “soluble”.

Consider “MELDFDKMNGLVPAIIQDNETRKVLMLGFMNKEAYDKTVETGKVTFFSRTKNRLWTKGEESGNFLHVVSIKADCDNDTLLIQADPAGPVCHTGTDTCWGEKNEEPVMFLKALQDFIDKRHEEMPQGSYTTSLFESGINKIAQKVGEEAVETVIEATNGTNERLIYEGADLIYHMIVLLTSKGYRIEDLARELQERHSSTWKKH”, for which the “soluble on expression in E. coli” value is given as “not soluble”.

With “MVFDKLLEQAGINLEFEDKEIKDSDYLGDVSDLIKIAVIGVGGSGNNTISRLYDLGVQGADLIAMNTDAQHLHQIKAHKKLLLGKSITHGKGSGGDPRIGYRAAEASASEIADIVKDYDLIFLTAGMGNGTGTGATPVIARIIKETARNNGLPQEPLVISVVTFPFKMEGKVRIEKAKAGIEMLLEYSDTVIIIQNDKLIELVPKLPIQVAFRFADEIIARMVKGIVETIKLPSMVNIDYADIYSVMKGGGPALIGIGESDSNNRAVDAVMEALNNKMLDIEFGSGDKALVHFTVGPDVSLEEITKAMEIVYERLGEKSEIKWGAMIEEDMGKTVRAMVIMTGVRSPQILGNINVNALTYSSSSLVVPRDSKIMSESKVDEIFSSIDPRASKLRKGNNSSRINKIFKDLGFYEL”, the “soluble on expression in E. coli” value is given as “soluble”.

As for “MKVMNIIHDSVVDGEGLRTVVFFAGCPHRCFGCHNPKSWNICNGTEMTVEEIVKEIASNPLTDVTFSGGDPFFQAAEVKKVAKAVKDLKKNLWMYTGYTLEEIQSSQNNDMIELLHYGDVLVDGRFEIGKKDLTLPFRGSSNQRIIRLKELEHHHHHH”, the “soluble on expression in E. coli” value is “soluble”.

Consider “MSLKMETGKLLMELSNLDGPSGYETNVVSYIKSVIEPFVDEAKTTRHGSLIGYKKGKGIGKLAFFAHVDEIGFVVSKVEGQFARLEPVGGVDPKVVYASKVRIYTKNGIERGVIGMLAPHLQDSESRKKVPTYDEIFVDLSLCERGVRVGDIAVIDQTAFETNGKVVGKALDNRASCGVLVKVLEFLKRYDHPWDVYVVFSVQEETGCLGALTGAYEINPDAAIVMDVTFASEPPFSDHIELGKGPVIGLGPVVDRNLVQKIIEIAKKHNVSLQEEAVGGRSGTETDFVQLVRNGVRTSLISIPLKYMHTPVEMVDPRDVEELARLLSLVAVELEVEGGSHHHHHH”, for which the “soluble on expression in E. coli” value is given as “soluble”.

With “MGSDKIHHHHHHMPRQWNTDALSAGHLSCSSFFPFALTNKIIGRIKKKNNRMKGNNQLCTLLKLCLLSMLAFGTAKAQIQIVGAPSMKALDDSPNRLQVFMLHTLNPASVILRFAGAGTGKLYRYTTKAIEAEEVTTATYSDGMWTLTAPQLNCGYFVSGDGRLPQYYWISNYADYALFVSAVTGKPSETSPCISMDLAVDAAIRPIPYFQPNGIPRRLDRHVQISYPDMEWDAEARLFRPSTKEVEVEASDDERTLVVSASLADAVYTIHGDRFTKELSLPFTAVATDEILTPKVEVYAFVDKVDGGSAIGDNTPEEGDASLVSAPFTVMLAAYGNEPSAANFVWRIYRTEEGAENSVLVYNGTSTEFTFRQAGIYSILLQATNRTGTCTDEVLLENYFKVAESSLIVPNAFSPYGSPGVNDVFRVKHSSLVHFDGRIFDSWGKQIFRWTNPDEGWDGKYRGKMMPTGVYYYVIEAEGADGIKYKRKGDINILRPAYEIPLGGNLPR”, the “soluble on expression in E. coli” value was “not soluble”.

As for “MSEAESVVIKGGNKDKILPLEAEEKKPIKEEKNKAVILSNWIIKYAPIVYFHPDEKCFPITVEEFLECTDVMNEKNEKFCDGKEILSGSFKDALGNQKFYLKITDTSVREGNLNSAKCYVYVRKRNKGRYLDLQYFFFYGYNGPTINIHLNKNKKNYSTSNIGENYGNWEHVTVVIDSTDGSILGAIFDQHGKSCFYDIDQLEYEKGHIVVYSALSSHASYPSAGKSVTEYDSQELGVPPVSVGIVKFELHDATDKGRRWDTSLVCQLVSYNITGTEVEEPKWMAFNGRWGKPYDLTDKDISILYQISRLPAGGKVVDSLLWRFIPYSKKNINQANGIKSKDDFNIIILEHHHHHH”, the “soluble on expression in E. coli” value is reported as “not soluble”.

On to “SSSRGFNIKARGLCNNNNGGGGTGAKCGRWNPTVEQVKLLTDLFKAGLRTPSTDQIQKISMELSFYGKIESKNVFYWFQNHKARERQKCRKISTVKFDHRQDTDLSKPRRDNVRRHQLPAKG”, for which the “soluble on expression in E. coli” value is given as “soluble”.

Turning to “MGSDKIHHHHHHMHYPPMIATTLPDGPEQTPLTAEIVLRYHLCWKHRDLDGVMALYHPDIQYHDFFQNRVLGHQELRDYVRACLPHEAGEDIVHSDRIRVDGSTAFIQYQVTVQGGDGLVAFQSSEAITVRDGLIWRVNEYATLVRQNGTGHANSGPRPATSRLGLSPRQLSTMAQDLEHYFRRQRPYLDPELDLQQVADASGYSRNQISYLLNQVLGQSFYRYVNQARLQHLMASLGDDSVEATIDELAFSAGFNSLSAFYKCFREHTGFTPKAYLKQISLRART”, the “soluble on expression in E. coli” value is reported as “not soluble”.

For the sequence “MGSDKIHHHHHHMKEIPGLVKKAQIDKHDLTWLEESEVDDRVQQRRYGTTQAAELAGISVGLLYAAEQDGRLPEPEYRSDTARKVRAGYTINHINHMQRVFNTAPRKPEGSSAAIAGILNLKGGSQKTTTCHLFSQYLAIRGYRCLLLDTDPQGSLSFYFGKRPDDNVHYENTVAPFFLEDDEALVEAGHPEGASRSLHYAIQKTYWDNIDIIPACLQNLNIDLLMPSVMNEANVPMLDRIMKLRNGLLEVGENYDFIIIDGTPSLNLSTLNVVSACDVCFVPTPAAMLDFASTLQFAGLVAETAEMYKQEKMYPNIPDMRYFITKYSGSSYAHFMGQIIRRVFTVERGDVLSTEAHASDEIGKANTSTYSIYEKNPAESDNRKRLKKTIEMFDRLFEEMHDAVWETCFEDALRSSHLDKIDEIMSSADLARDDLKRANRLSDKEA”, the “soluble on expression in E. coli” value is on record as “not soluble”.

As to “MGSDKIHHHHHHMQMENSVTTRSRSPDAVRDSAVDRNAYQAKIDPHALKFQIFQEVLTIKREFKCCGGGCCGCLACIGCCQQECIIETPSMGVLGIIRQRCGCMSSNYDIMDGDGNVIFQIDGPCCCMLCGCQDKEFPIKTANNGTVVGAITKKWGGCFREAFTDADTFAVNFPGDLDVKLKGVLIGATFLIDFMEFEQQSQNRNNGV”, the “soluble on expression in E. coli” value is recorded as “not soluble”.

As to “TNSAVVDVSFGFPSLVGFTFMSEMVHQFKMTFPKARVSMYEAQLSAFLPAIRDGRLDFAIGTLSDEMKLQDLHVEPLFESEFVLVANRARIGNGTVRLASLQHEQWVLPETNMGYYSELLTTLQRSGIRRENIVNTDSVVTIYNLVLNAD”, the “soluble on expression in E. coli” value is on record as “not soluble”.

Turning to “MKKFDVAIVGGGLAGLTASIYLAKVGRKVIVLEKSSQFGGRGMTTNKNGICMNLGAHALYRGGAAFITFNELGMTLPGGIPSTKAHGIWKGDIFTIPTDFRSILSTPLLSWSAKVQFSRLMIRLGNLDVGEVPKMSLTTWAENEIKDPMVRNIFYALCRTTTYTFAPTIQLASSVLKQIQLSIKEGVLYVDGGWETIITKLRAIANDIGVQFLAKKHVVEIEHSEGKQRIHCVDDEVFEVGTVIVTTPPKEACKIIKGAEGTSLHKWSEQSVPVTVGALDIGLRQLPNPTHQFVLGLDQPIFFTNQSRAAKLSEDGSIAVSLIKYHNPVLEMNHIHEDKEQLESTMELLHSNWKREVVAQQYLPKITVVHDFPHIDRVEKPGPNIPEMPGVYVAGDWAGHDEILADAAVASGKRAALHILKQYESEAVHHGNGAVILEHHHHHH”, the “soluble on expression in E. coli” value was “soluble”.

As for “MGSSHHHHHHSSGLVPRGSHWGSPNSSSVDKLMDTIVAVATPPGKGAIAILRLSGPDSWKIVQKHLRTRSKIVPRKAIHGWIHENGEDVDEVVVVFYKSPKSYTGEDMVEVMCHGGPLVVKKLLDLFLKSGARMAEPGEFTKRAFLNGKMDLTSAEAVRDLIEAKSETSLKLSLRNLKGGLRDFVDSLRRELIEVLAEIRVELDYPDEIETNTGEVVTRLERIKEKLTEELKKADAGILLNRGLRMVIVGKPNVGKSTLLNRLLNEDRAIVTDIPGTTRDVISEEIVIRGILFRIVDTAGVRSETNDLVERLGIERTLQEIEKADIVLFVLDASSPLDEEDRKILERIKNKRYLVVINKVDVVEKINEEEIKNKLGTDRHMVKISALKGEGLEKLEESIYRETQEIFERGSDSLITNLRQKQLLENVKGHLEDAIKSLKEGMPVDMASIDLERALNLLDEVTGRSFREDLLDTIFSNFCVGK”, the “soluble on expression in E. coli” value was “soluble”.

On to “MSKNERMVGISRRTLVKSTAIGSLALAAGGFSLPFTLRNAAAAVQQAREKVVWGACSVNCGSRCALRLHVKDNEVTWVETDNTGSDEYGNHQVRACLRGRSIRRRINHPDRLNYPMKRVGKRGEGKFERISWDEALDTIASSLKKTVEQYGNEAVYIQYSSGIVGGNMTRSSPSASAVKRLMNCYGGSLNQYGSYSTAQISCAMPYTYGSNDGNSTTDIENSKLVVMFGNNPAETRMSGGGITYLLEKAREKSNAKMIVIDPRYTDTAAGREDEWLPIRPGTDAALVAGIAWVLINENLVDQPFLDKYCVGYDEKTLPADAPKNGHYKAYILGEGDDKTAKTPQWASQITGIPEDRIIKLAREIGTAKPAYICQGWGPQRQANGELTARAIAMLPILTGNVGISGGNSGARESTYTITIERLPVLDNPVKTSISCFSWTDAIDHGPQMTAIRDGVRGKDKLDVPIKFIWNYAGNTLVNQHSDINKTHEILQDESKCEMIVVIENFMTSSAKYADILLPDLMTVEQEDIIPNDYAGNMGYLIFLQPVTSEKFERKPIYWILSEVAKRLGPDVYQKFTEGRTQEQWLQHLYAKMLAKDPALPSYDELKKMGIYKRKDPNGHFVAYKAFRDDPEANPLKTPSGKIEIYSSRLAEIARTWELEKDEVISPLPVYASTFEGWNSPERRTFPLQLFGFHYKSRTHSTYGNIDLLKAACRQEVWINPIDAQKRGIANGDMVRVFNHRGEVRLPAKVTPRILPGVSAMGQGAWHEANMSGDKIDHGGCVNTLTTLRPSPLAKGNPQHTNLVEIEKI”, for which the “soluble on expression in E. coli” value is reported as “soluble”.

Regarding “MKFDPQKYRELAEKDFEAAWKAGKEILAERSPNELYPRVGFSFGKEHPLFATIQRLREAYLSIGFSEVVNPLIVEDVHVKKQFGREALAVLDRCFYLATLPKPNVGISAEKIRQIEAITKREVDSKPLQEIFHRYKKGEIDGDDLSYLIAEVLDVDDITAVKILDEVFPEFKELKPISSTLTLRSHMTTGWFITLSHIADKLPLPIKLFSIDRCFRREQGEDATRLYTYFSASCVLVDEELSVDDGKAVAEALLRQFGFENFRFRKDEKRSKYYIPDTQTEVFAFHPKLVGSSTKYSDGWIEIATFGIYSPTALAEYDIPYPVMNLGLGVERLAMILYGYDDVRKMVYPQIHGEIKLSDLDIAREIKVKEVPQTAVGLKIAQSIVETAEKHASEPSPCSFLAFEGEMMGRNVRVYVVNENENTKLCGPAYANEVVVYKGDIYGIPKTKKWRSFFEEGVPTGIRYIDGFAYYAARKVEEAAMREQEEVKVKARIVENLSDINLYIHENVRRYILWKKGKIDVRGPLFVTVKAEIE”, the “soluble on expression in E. coli” value is reported as “soluble”.

Take “MGITALAFDFGTKSIGCAIGQSITGTAQALPAFKAQDGIPNWEAIEKCLKEWKPDVVIVGLPLNMDGTEQDLTLRARKFANRLQGRFGVNVHLQDERLTTTQARSEIFERGGFKALKKGKIDGVSACLILESWFEYAEY”: the “soluble on expression in E. coli” value was “not soluble”.

“MYKAVVFDFDGTVIDTEKHLFDLINTHLKIHQVAPISLEFYKQFIGGEATELHTYLEDAIGFKNKEKIYDQYYQTSVELPVNSTIIQLMQYLKKRHIPMAITTSSYKKNIYPIFKQLGLDTYIDVVVGRENVDSVQPNPEIYLKAVQELNYNPTTCLAIEDSVNGATAAMLAGLDVVVNTNIITKDQDFSTVQCVGQDMEFEDIKNSLFKE”: the “soluble on expression in E. coli” value is “not soluble”.
